We go through 19 variants from the RNAGym collection of RNA variant scans (doi:10.1073/pnas.2313332121).

B1: TPR 5TU (parent)
chain: GGAUCUUCUCGAUCUAACAAAAAAGACAAAUCUGCCACAAAGCUUGAGAGCAUCUUCGGAUGCAGAGGCGGCAGCCUUCGGUGGCGCGAUAGCGCCAACGUUCUCAACUAUGACACGCAAAACGCGUGCUCCGUUGAAUGGAGUUUAUCAUG

Fewer inactive variants are shown than the library holds.

In this data set the parent is B1. The data set can be described thus: polymerase ribozyme fitness, log enrichment relative to wild type (log ratio); higher = more active; in vitro selection for triplet polymerase activity. Summed up:
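Mutant libraries for each subunit of a heterodimeric triplet polymerase ribozyme were made by PCR and then transcribed. Each library underwent one round of in vitro selection in triplicate: annealing with a biotinylated primer, the partner subunit and triplets, frozen incubation at −7 °C, gel excision of extended constructs, streptavidin-bead capture and RT-PCR. Input and output libraries were Illumina-sequenced, and only genotypes with ≥10 input reads and ≥1 read per output were kept. Fitness is the logarithm, base 2, of genotype enrichment over wild-type enrichment, computed from inverse-variance-weighted replicate averages.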
Turning to GGAUCUUCUCGAUCUAACAAAAAAGACAAAUCUGCCACAAAGCUUGAGAGCAUCUUCGGAUGCAGAGGCGGCAGCCCUCGGUGGAGCGAUAGCGCCAACGUUCUCAAAUACGUCACGCAAAACGCGUGCUCCGUUGAAUGGAGUUUAUCAUG [U77C C85A C108A U111C A113U], the “polymerase ribozyme fitness (log ratio)” value was not above -4.2.

On to GGAUCUUCUCGAUCUAACAAAAAAGACAAAUCUGCCACAAAGCUUGAGAGCAUCUUCGGAUGCAGAGGCGGCAGCCUUCGGUGGCCCGAUAGCGCCAAGGUUCUCAACGAUGACACGCAAAACGCGUGAUCCGUUGAAUGGAGUUUAGCAUG [G86C C99G U109G C129A U148G], for which the “polymerase ribozyme fitness (log ratio)” value was not above -4.2.

With GGAUCUUCUCGAUCUAACAAAAAAGACAAAUCUGCCACAAAGCUUGAGAGCAUCUUUGGAUGCAGAGGCGGCAGCCUUCGGUGGGGCGAUAGCGCCAACGUUCUCAACUAUGACACGCAAAACGCGUGCUCCGUUGAAUGGAGUUUAUCAUG [C57U C85G], the “polymerase ribozyme fitness (log ratio)” value is -2.48.

Take GGAUCUUCUCAAUCUAACAAAAAAGAAAAAUCUGCCCCAAAGCUUGAGAGCAUCUUCGCAUGCAGAGGCGGCAGCCUUCGGUAGCACGAUAACGCCAACGUGCUCAACUAUGACACUCAAAACGCGUGCUCCGUUGAAUGGAGUUUAUCAUG [G11A C27A A37C G59C G83A G86A G92A U102G G117U]: the “polymerase ribozyme fitness (log ratio)” value was not above -4.2.

With GGAUCUUCUCUAUCUAACAAAAAAGACAAAUCUGCCACAAAGCUUGAGAGCAUCUUCGGAUGCAGAGGCGGCAGCCUUCGGUGGCGCGAUAGCGCCAACGUUGUCAACUAUGACACGCAAAAGGCGUGCUCCGUUGAAUGGAGUUUAUCAUG [G11U C103G C123G], the “polymerase ribozyme fitness (log ratio)” value was -2.44.

GGAUCUUCUCGAUCUAACAAAAAAGUUAAAUCAACCACAAAGCUUGAGAGCAUCUAUGGAUGCAGAGGCGGCAGCAUUCGGUGGGGCAAUAGCGCCAACGUUCUCAACUAUGACACGCAAAACGCGCGCUCCGUUGAAUGGAGUUUAUCAUG [A26U C27U U33A G34A U56A C57U C76A C85G G88A U127C]: the “polymerase ribozyme fitness (log ratio)” value is not above -4.2.

For GGAUCUUCUCGAUCUAACAAAAAAGACAAAUCUGCCACAAAGCUUGAGAGCAUCUUCGAAUGCAGAGGCGGCAGCCUUCGGUGGCGCGAUAGUGCCAUCGUUCUCAACUAUGACACGCAAAACGCGUGCUCCGUUGACUGGAGUUUAUCAUG [G59A C93U A98U A138C], the “polymerase ribozyme fitness (log ratio)” value was not above -4.2.

On to GGAUCUUCUCGAUCUAACAAAAAUGACAAAUCUGCCACAAAGCUUGAGAGCAUCUUCGGAUGCAGAGGCGGCUGCCUUCGGUGGCGCGAUAGCGCCAACGUUCUCAACUAUGACACGCGAUACGCGUGCUCAGUUGAAUGGAGUUUAUCAUG [A24U A73U A119G A121U C132A], for which the “polymerase ribozyme fitness (log ratio)” value was -3.66.

As for GGAUCUUCUCGAUCUAACAAAAAAGACUAAUCUGCCACAAUGCUUGAGAGCAUCUUCGGAUGCAGAGGCGGCAGCCUUGGGUGGCACGAUAGCGCCAACGUUCUCAACUAUGACACGCAAAACGCGUGCUCCGUUAAAUGGAGUUUAUCAUA [A28U A41U C79G G86A G136A G152A], the “polymerase ribozyme fitness (log ratio)” value was not above -4.2.

Take GGAUCUUCUCGAUCUAACAAAAAAGUCAAAUCUGCCACAAAGCUUGAGGGCAUCUUCGGAUGCAGAGGCGGCAGCCUUCGGUGGCGCGAUAGUGCCAACGUUCUCAACUAUGACACGCAAAACCCGUGCUCCGUGGAGUGGAGUUUAUCAUG [A26U A49G C93U G124C U135G A138G]: the “polymerase ribozyme fitness (log ratio)” value was not above -4.2.

Consider GGAUCUUCUCGAUCUAACAAAAAAGACAAAUCUGCCACAAAGCUUGAGAGCAUCUUCGGAUGCAGAGGCGGCAGCCUUCGGUGGCGCGAUAACGCCAACGUUCUCAGCUAUGACACGCAAAACGCGUGCUCCGUUGAAUGGAGUUUAUCAUG [G92A A107G], for which the “polymerase ribozyme fitness (log ratio)” value was not above -4.2.

GGAUCUUCUCGAUCUAACAAAAAAGACAAAUCUGCCACAAAGCUUGACAGCAUCUUCGGAUGCAGAGGCGGCAGCUUUCGGUGGCGCGAUAGCGCCAACGUUCUCAACUAUGACACGCAAAACGCGUGCUCCGUUGAAUGGAGUUUAUCAUG [G48C C76U]: the “polymerase ribozyme fitness (log ratio)” value is -3.15.

On to GGAUCUUCUCGAUCUAACAAAAAAGACAAAUCUGCCACAAAGCUUGAGAGCAUCUACGGAUACAGAGGCGGCAGCUUUCGAUGGCGUGAUAGCGUCAACGUUCUCAACUAUGACACGCAAAACGCGUGCUCCGUUGAAUGGAGUUUAUCAUG [U56A G62A C76U G81A C87U C95U], for which the “polymerase ribozyme fitness (log ratio)” value is -1.49.

Regarding GGAUCUUCUCGAUCUAACAAAAAAGACAUAUCUGCCACAAAGCUUGAGAGCAUCUUCGGAUGCAGAGGCGGCAGCCUUCGGUGGCGCGAUAGCGCCAACGUUCUCAACUAUGACACGCAAAACGCGUGCUCCGUUGGAUGGAGUUUAUCAUG [A29U A137G], the “polymerase ribozyme fitness (log ratio)” value was not above -4.2.

GGAUCUUCUCGAUCUAACAACAAAGACAAAUCUGCCACAAAGCUUGAGAGCAUCUUCGGAUGCAGAGGCGGCAGCCUUCGGUGGCACGAUAGCGCCAACGUUCUCAACUAUGACACGCAAAACGCGUGCUCCGUUGAAUGGAGUUUAUCAUG [A21C G86A]: the “polymerase ribozyme fitness (log ratio)” value is -0.32.

Consider GGAUCUUCUCGAUCUAACAAAAAAGACAAAUCUGCCACAAAGCUUGAGAGCAUCUUCGGAUGCAGAGGCGGCAGCCUUCGGUUGCGCGAUAGCGCCAACGUUCUCAACUAUGACACGCAAAACGCGUGCUCCGUUGAAUGGAGUUUAUCAAG [G83U U151A], for which the “polymerase ribozyme fitness (log ratio)” value is not above -4.2.

As to GGAUCUUCUCGAUCUAACAAAAAAGACAAAUCUGCCACAAAGCUUGAGAGCAUCUUCGGAUACAGAGGCGGCAGCCUUCGGUGGCGCGAUAGCGCCAAUGUUCUCAACUAUGACACGCAAAACGCGUGCUCCGUUGAAUGGAGUUUAUCAUG [G62A C99U], the “polymerase ribozyme fitness (log ratio)” value is -2.24.

Consider GGAUCUUCUCGAUCUAACAAAAAAGACAAAUCUGCCACAAAGCUUGAGAGCAUCAUCGGAUGCAGAGGCGGCAGCCUUCGGUGGCGCGAUAGCGCCAACGUUCUCAAGUAUGACACGCAAAACGCGUGCUCCGUUGAAUGGAGUUUAUCAUG [U55A C108G], for which the “polymerase ribozyme fitness (log ratio)” value is not above -4.2.

For the variant GGACCUUCUCGAUCUAACAAAAAAGACAAAUCUGCCACAAAGCUUGAGAGCAUCUUCGGAUGCAGAGGCGGCAGCAUUCGGUGGCGCGAUAGUGCCAACGUUCUCAACUAUGACACGCAAAACGCGUGCUCCGUUGAAUGCAGUUUAUCAUG [U4C C76A C93U G141C], the “polymerase ribozyme fitness (log ratio)” value is not above -4.2.
